Test results: patent US20170037129A1

B1: C4sh1B2 (antibody, V domains shown)
VH: QMQLVQSGAEVKKPGASVKVSCKASGYTFTGYYIHWVRQAPGQGLEWMGWINPNSGGTIYAQKFQGRVTMTRDTSISTAYMELSRLRSDDTAVYYCARGSTNFDSWGQGTLVTVSS
VL: QAGLTQPPSASGSPGQSVTISCTGTSSDVGGYNSVSWYQQHPGKAPKLMIYDVSNRPSGVSNRFSGSKSGNTASLTISGLQAEDEADYYCSSYINSGTLVFGGGTKLTVL
B2: C4sh1A6 (antibody, V domains shown)
VH: QVQLVESGGGVVQPGRSLRLSCAASGFTFSTYAMHWVRQAPGRGLEWVAGISYDGSNKYHADPVKGRFTISRDNSKNTLYLQMNNLRVEDSAVYYCAGDRSGGLDVWGQGTTVTVSS
VL: DIVMTQSPSSLSASVGDRVTITCRASQGISNSLAWYQQKSGKAPKLLLYAASGLESGVPSRFSGSGSGTDYTLTISSLQPEDFATYYCQQSYSMPLTFGGGTKVEIK
B3: C4R1B2 (antibody, V domains shown)
VH: QVQLVQSGAEVKKPGASVKVSCKASGYGFTSYAIHWLRQAPGQRLEWMGWINPGNGNTKYSQKFQGRVTITRDTSATTAYMELTSLRSEDSDTAVYYCARDLDGGSFDHWGQGTLVTVSS
VL: QSVVTQPASVSGSPGQSITISCTGTSSDVGSYNLVSWYQQHPGKAPKLMIYDVTNRPSGVSNRFSGSKSGNTASLTISGLQAEDEADYYCSSYTRSSTYVFGTGTKVTVL

target: endogenous human CD147 expressed on human cancer cells (human) (UniProt P35613); assay: flow cytometry on A549 cells

EC50 | Binder
3.73 nM | B1
35.9 nM | B2
83.8 nM | B3

target: endogenous human CD147 expressed on human cancer cells (human) (UniProt P35613); assay: flow cytometry on K562 cells

EC50 | Binder
1.55 nM | B1
0.6 nM | B2
168 nM | B3

target: endogenous human CD147 expressed on human cancer cells (human) (UniProt P35613); assay: flow cytometry on PC-3 cells

EC50 | Binder
4.5 nM | B1
> 100 nM | B2
> 100 nM | B3
